Reference: patent US12616760B2, “Synthetic cyclic peptide mimetics” (priority 2020, dated 2026)
Numbered stars: 1 amine (or outer) side, 2 acyl side, 3 side chain; on linkers, the order of the positions; unused ones are H or OH. Square brackets hold non-standard residues; d marks the D form. Peptide text beside a SMILES is read from it. * marks the point of attachment. NOTA = O=C(O)CN1CCN(CC(=O)O)CCN(CC(=O)*)CC1; azaPhe = O=C(N(Cc1ccccc1)N[*:1])[*:2]; Nle = CCCC[C@H](N)C(=O)O; azaGly = NNC(=O)O

Experiments:
CL2006 C. elegans strain = test system: CL2006 C. elegans strain; set-up: species or system Caenorhabditis (C.) elegans; conditions: in vivo
From the text: Compound 3 was used in two in vivo transgenic Caenorhabditis (C.) elegans models expressing human Aβ42. The CL2006 C. elegans strain produces constitutively a body-wall muscle-specific Aβ42, the aggregation of which causes age-dependent paralysis, motility dysfunction and consequently short lifespan. The CL2355 strain expresses a temperature-inducible pan-neuronal Aβ42, accumulation of which leads to deficits in chemotaxis, associative learning and thrashing in liquid. The CL2006 mutant and control CL802 wild type worms had respective lifespans of 13.6 and 15.6 days (P<0.005, FIG. 3A).

Aβ40 = biological target: T1, Aβ40 (Homo sapiens, UniProt P05067); test: Thioflavin T (ThT) fluorescence assay of Aβ40 aggregation; format: biochemical; conditions: ThT, 10 μM soluble Aβ40
T1 construct: The extent of Aβ40 aggregation in the presence of increasing concentrations of azacyclopeptides
T1 sequence (P05067 672-711 limits assumed): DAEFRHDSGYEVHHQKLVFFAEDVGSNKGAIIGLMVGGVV
Experimental: Amyloid generation can be identified and quantified using the thioflavin T (ThT) fluorescence dye assay. […] Agents that bind and inhibit aggregation of Aβ diminish ThT fluorescence relative to untreated Aβ. The extent of Aβ40 aggregation in the presence of increasing concentrations of azacyclopeptides and azasulfurylcyclopeptide 55 was evaluated by the ThT assay. Fluorescence of Aβ40 that was aged for 48 h was used as control, defined as 0% anti-amyloidogenic activity, and compared with fluorescence in the presence of cyclic peptide mimics at increasing concentrations to measure anti-amyloidogenic activity.

Aβ species = test: PET imaging of ^64Cu-conjugates in 5×FAD mice; format: in vivo; conditions: for Aβ uptake (activity in the Aβ species) / Aβ uptake relative to ^64Cu-1-NOTA: 6-month old 5×FAD mice; for Aβ uptake (activity in the Aβ species): 20 h post-injection
Experimental: (§1) Images were taken 3 weeks apart on the same 5×FAD mouse for ^64Cu-conjugate 43 and ^11C-PIB (FIGS. 1B and C) using the 2-(4′-[^11C]methylaminophenyl)-6-hydroxybenzothiazole (^11C-PIB) compound. Use of ^11C-PIB is limited to 1 h due to short half-life (t1/2=20.4 min). […] In control 44 day-old WT mouse at 1-day post-injection of ^64Cu-conjugate 43, brain uptake is very low (FIG. 1D). Non-transgenic littermates (labeled as wild type (WT) controls in the text and FIG. 1D) were housed in the same manner as 5×FAD mice and used for comparison.
(§2) Amyloid plaque detection was evaluated in 4.5-7-month-old Tg [5×FAD] mice and age-matched wild-type controls using the ^11C-PIB compound. 5×FAD mice carry both mutant human APP(695) with the Swedish (K670N, M671L), Florida ([…]), and London (V717I) Familial Alzheimer's Disease (FAD) mutations and human PS1 harboring two FAD mutations, M146L and L286V. 5×FAD mice develop plaque formation beginning at 2 months and cognitive deficits at 4-6 months. […] Amyloid beta of ^64Cu-conjugate 40 in hippocampus at 1 h post injection (1.285±0.034% ID/g) was similar to that of ^11C-PIB (1.038±0.028% ID/g. FIG. 1) in the cortex.
(§3) Red and blue colours represent respectively highest and zero uptake. […] Different intensity scales were used for PET images. […] Images were taken 3 weeks apart on different mouse for ^64Cu-43 and ^11C-PIB. Co-registration of experimental image data with brain mask to mouse atlas space was achieved to identify volumes of interest. 1. Striatum; 2. Cortex; 3. Hippocampus; 4. Thalamus; 5. Cerebellum; 6. Basal forebrain septum; 7. Hypothalamus; 8. Amygdala; 9. Brain stem; 10. Central gray; 11. […] Olfactory bulb; 13. Midbrain; 14.

[1] = PET imaging and biodistribution, formulation tests in Balb/c mice; format: in vivo
Experimental: Different formulations were tested with the ^64Cu-1-NOTA conjugate to investigate the solubility of the PET tracer in vivo and select the best formulation for PET imaging studies. […] For further in vivo studies, 8% DMSO and 9% sucrose (for azaconjugates) were used.

[2] = PET imaging of ^64Cu-conjugates in 5×FAD mice; format: in vivo; conditions: mouse, in vivo, total radioactivity
Experimental: as §1, §2, §3

With CCCC[C@@H]1NC(=O)[C@@H](CC(C)C)NC(=O)[C@H](CCCCN)NC(=O)NNC(=O)[C@H](Cc2c[nH]cn2)NC(=O)[C@@H](Cc2c[nH]c3ccccc23)NC1=O [Compound 3, c(D-Leu-L-Nle-D-Trp-L-His-Gly*-L-Lys)] (cyclo(K[dL][Nle][dW]H[azaGly])) the toxicity and longevity (CL2006 C. elegans strain) was “no toxicity and no influence on wild type CL802 worm longevity”, the “Inhibition of amyloidogenic activity(%)” value (Aβ40; Aβ:peptide 1:1) was 83.7% and the “Inhibition of amyloidogenic activity(%)” value (Aβ40; Aβ:peptide 1:5) was 81.3%. For the same molecule, the “Inhibition of amyloidogenic activity(%)” value (Aβ40; Aβ:peptide 1:10) was 83.7%.
In the case of [11CH3]Nc1ccc(-c2nc3ccc(O)cc3s2)cc1 [^11C-PIB, 2-(4′-[^11C]methylaminophenyl)-6-hydroxybenzothiazole, reference compound], the “uptake in the cortex” value (Aβ species; 5×FAD mice, ^11C-PIB) is reported as 1.038±0.028 % ID/g.
For CCCC[C@@H]1NC(=O)[C@@H](CC(C)C)NC(=O)[C@H](CCCCNC(=O)CN2CCN(CC(=O)O)CCN(CC(=O)O)CC2)NC(=O)[C@@H](CO)NC(=O)[C@H](Cc2c[nH]cn2)NC(=O)[C@@H](Cc2c[nH]c3ccccc23)NC1=O [^64Cu-1-NOTA, metal not drawn] (cyclo([dL][Nle][dW]H[dS]K(NOTA))), the “Aβ uptake (activity in the Aβ species)” value (Aβ species) was 0.430±0.010 % ID/g, the organ uptake ([1]; Intra-lipid (20% IV fat-emulsion) formulations) was “lower uptake in the lungs and a higher uptake in the gastrointestinal tract and gallbladder” and the organ uptake ([1]; formulated in 8% DMSO) was “High lung and liver uptake”.
CCCC[C@@H]1NC(=O)N(Cc2ccccc2)NC(=O)[C@H](CCCCNC(=O)CN2CCN(CC(=O)O)CCN(CC(=O)O)CC2)NC(=O)[C@@H](CO)NC(=O)[C@H](Cc2c[nH]cn2)NC(=O)[C@@H](Cc2c[nH]c3ccccc23)NC1=O [^64Cu-conjugate 40, metal not drawn] (cyclo([azaPhe][Nle][dW]H[dS]K(NOTA))) showed a tissue uptake ([2]; 5×FAD mice at 4.5 months, read-out: accumulation of activity in the Aβ species) of 0.165 ± 0.005 %ID/g, a tissue uptake at 1 h ([2]; 5×FAD mice, 1 h post injection, read-out: uptake in hippocampus) of 1.28 ± 0.034 %ID/g and a tissue uptake at 20 h ([2]; 6-month old 5×FAD mice, 20 h post-injection, read-out: Aβ uptake (activity in the Aβ species)) of 2.1 ± 0.059 %ID/g. The “time of highest activity value in Aβ species” value (Aβ species; 5×FAD mice, post injection) was 1 days, the “Aβ uptake relative to ^64Cu-1-NOTA” value (Aβ species) was “approximatively five times superior” and the “Aβ uptake (activity in the Aβ species)” value (Aβ species) was 2.102±0.059 % ID/g.
With CCCC[C@@H]1NC(=O)[C@@H](CC(C)C)NC(=O)[C@H](CCCCNC(=O)CN2CCN(CC(=O)O)CCN(CC(=O)O)CC2)NC(=O)NNC(=O)[C@H](Cc2c[nH]cn2)NC(=O)[C@@H](Cc2c[nH]c3ccccc23)NC1=O [^64Cu-conjugate 43, metal not drawn] (cyclo([dL][Nle][dW]H[azaGly]K(NOTA))) the “Aβ uptake relative to ^64Cu-1-NOTA” value (Aβ species) was “approximatively five times superior”, the “Aβ uptake (activity in the Aβ species)” value (Aβ species) was 2.030±0.056 % ID/g and the “uptake into the thalamus” value (Aβ species; Tg female 5×FAD AD mice, 9% sucrose in saline, 1-day post-injection) was “increased with age from 44 to 72 days”. For the same molecule, the brain uptake (Aβ species; control 44 day-old WT mouse, 1-day post-injection) was “very low”.
